One protein from EP2348038A1, “Method for determining the activity of transglutaminase factor XIIIa” (PHILIPPS-UNIVERSITÄT MARBURG, priority 2010, dated 2011) can be followed below.

For orientation: Km means the substrate concentration at which the rate is half of its maximum.

What all share (assay type): biochemical
Substrate in data set [1]: CC[C@H](C)[C@H](NC(=O)[C@@H](NC(=O)[C@H](CCCCN)NC(=O)[C@@H](NC(=O)[C@H](CCC(=O)Nc1ccc([N+](=O)[O-])cc1)NC(=O)[C@@H](N)Cc1ccc(O)cc1)C(C)C)C(C)C)C(=O)NCC(N)=O
The data set can be described thus: Cleavage of pNA substrates by activated factor XIIIa, absorbance at 405 nm (Michaelis-Menten kinetics and pre-test). The settings on record: other: pNA substrates, 37 °C, enzyme ca. 1,25 Einheiten/ml, varied substrate concentration, pH 7.5. The procedure:
(§1) 250 Einheiten lyophilisiertes Fibrogammin HS (Aventis Behring) wurden in 4 ml Wasser gelöst, als 100 µl Portionen aliquotiert und bei -80 °C gelagert. 100 µl dieser Lösung enthalten 6,25 Einheiten FXIII.
(§2) 100 µl des aliqotierten Fibrogammins (entspricht 6,25 Einheiten) wurden mit 500 µl TBS-Puffer (50 mM Tris-HCl, pH 7,5 in 0,9% (w/v) NaCl), 360 µl einer 0.9 % NaCl-Lösung, 10 µl einer 1 M CaCl2-Lösung und 20 µl einer Thrombinlösung (Rinderthrombin: 14,2 U in 20 µl) versetzt. Der Ansatz wurde 20 min bei 37 °C inkubiert, danach wurden 10 µl einer Lösung mit rekombinantem Hirudin zugesetzt (r-Hirudin: HBW 023 mit 13442 IU mg^-1, Stammlösung des r-Hirudin = 1 mg/ml). Dieser Aktivierungsansatz besitzt ein Gesamtvolumen von 1 ml, der aktivierte Faktor Xllla wurde bei 37 °C aufbewahrt und für die folgenden kinetischen Messungen verwendet.
(§3) Die Messungen wurden bei 405 nm und 37 °C mit einem Microplate Reader der Firma Labsystems (iEMS Reader MF) mit folgendem Messansatz durchgeführt: • 150 µl TBS-Puffer (siehe oben, der Puffer kann gegebenenfalls auch eine Aminkomponente enthalten, beispielsweise H-Gly-Ethylester oder H-Gly-Gly-Ethylester oder ein anderes Amin, falls vorhanden ist die finale Konzentration des Amins im Messansatz 2,5 mM oder höher) • 50 µl Substratlösung • 50 µl Enzymlösung (im Messansatz ca. 1,25 Einheiten/ml)
(§4) Sämtliche Lösungen wurden vor Benutzung bei 37 °C aufbewahrt, vor Zugabe der FXllla-Lösung wurde die Mikroreadermessplatte nochmals 5 min bei 37 °C im Messgerät temperiert. Nach Zugabe der FXllla-Lösung wurde die Substratspaltung gestartet und die Änderung der Absorption bei 405 nm gemessen. Für einen Vortest wurde eine konstante Substratkonzentration verwendet. […] Wir haben vermutet, dass vor allem die Aminosäuren N- und C-terminal des Glu(pNA)-Restes wichtig für die Substraterkennung sind, deshalb wurde das N-terminale Glycin und das an dritter Position befindliche Serin innerhalb der Berichromsequenz durch andere Aminosäurereste ersetzt. Durch den Vortest wurde festgestellt, dass einige dieser Substrate deutlich schneller als die Derivate S1 und S2 gespalten werden. Für ausgewählte Substrate wurden die Substratkonzentrationen im Messansatz variiert und die bestimmten Umsatzgeschwindigkeiten als Funktion der Substratkonzentration entsprechend der Michaelis-Menten-Gleichung v=Vmax·[S]/(Km+[S]) aufgetragen und somit die kinetischen Konstanten Km und Vmax bestimmt, wobei Vmax in der Einheit Absorptionsänderung bei 405 nm/s erhalten wurde. Dies ist in Fig. 1 und Fig. 2 gezeigt.

Substrate in data set [2]: CC[C@H](C)[C@H](NC(=O)[C@@H](NC(=O)[C@H](CCCCN)NC(=O)[C@@H](NC(=O)[C@H](CCC(=O)Nc1ccc([N+](=O)[O-])cc1)NC(=O)[C@@H](N)Cc1ccc(O)cc1)C(C)C)C(C)C)C(N)=O
The description is as above. The settings on record: other: pNA substrates, 37 °C, enzyme ca. 1,25 Einheiten/ml, varied substrate concentration, pH 7.5. The procedure:
as §1, §2, §3, §4

Substrate in data set [3]: CC[C@H](C)[C@H](NC(=O)[C@@H](NC(=O)[C@H](CCCNC(=N)N)NC(=O)[C@@H](NC(=O)[C@H](CCC(=O)Nc1ccc([N+](=O)[O-])cc1)NC(=O)[C@@H](N)Cc1ccc(O)cc1)C(C)C)C(C)C)C(=O)NCC(N)=O
The description is as above. The conditions noted are these: other: pNA substrates, 37 °C, enzyme ca. 1,25 Einheiten/ml, varied substrate concentration, pH 7.5. The method, then:
as §1, §2, §3, §4

Substrate in data set [4]: CC[C@H](C)[C@H](NC(=O)[C@H](CCC(=O)Nc1ccc([N+](=O)[O-])cc1)NC(=O)[C@@H](N)Cc1ccc(O)cc1)C(=O)N[C@@H](CCCCN)C(=O)N[C@H](C(=O)N[C@H](C(=O)NCC(N)=O)[C@@H](C)CC)C(C)C
The description is as above. The conditions noted are these: other: pNA substrates, 37 °C, enzyme ca. 1,25 Einheiten/ml, varied substrate concentration, pH 7.5. The method, then: as §1, §2, §3, §4

Substrate in data set [5]: CC[C@H](C)[C@H](NC(=O)[C@@H](NC(=O)[C@H](CCCCN)NC(=O)[C@@H](NC(=O)[C@H](CCC(=O)Nc1ccc([N+](=O)[O-])cc1)NC(=O)[C@@H](N)CCCCN)C(C)C)C(C)C)C(=O)NCC(N)=O
Nature of the data set: Cleavage of AMC substrates by activated factor XIIIa, fluorescence plate reader (Michaelis-Menten kinetics). The settings on record: other: AMC substrates; λEX = 380 nm, λEm = 460 nm, room temperature; enzyme ca. 0,893 Einheiten/ml. The procedure: (§5) Die Aliquotierung des Zymogens Faktor XIII und Aktivierung des Zymogens FXIII zu Faktor XIIIa erfolgten analog der in Beispiel 3 beschriebenen Prozedur.
(§6) Sämtliche Lösungen wurden bei Raumtemperatur aufbewahrt. Die Bestimmung der Spaltung der AMC-Substrate durch FXllla wurde mit einem Fluoreszenz-Plattenreader Safire^2 der Firma Tecan (λEX = 380 nm, λEm = 460 nm) bei Raumtemperatur durchgeführt. • 100 µl TBS-Puffer (siehe oben, der Puffer kann gegebenenfalls auch eine Aminkomponente enthalten, beispielsweise H-Gly-Ethylester oder H-Gly-Gly-Ethylester oder ein anderes Amin) • 50 µl Substratlösung • 25 µl Enzymlösung (im Messansatz ca. 0,893 Einheiten/ml)
(§7) Die Michaelis-Menten-Auftragung für die AMC-enthaltenden Substrate ist in Fig. 3 gezeigt.

Substrate in data set [6]: CC[C@H](C)[C@H](NC(=O)[C@@H](NC(=O)[C@H](CCCCN)NC(=O)[C@H](CCCCNC(=O)OCc1ccccc1)NC(=O)[C@H](CCC(=O)Nc1ccc([N+](=O)[O-])cc1)NC(=O)[C@@H](N)Cc1c[nH]cn1)C(C)C)C(=O)NCC(N)=O
The data set is described as above. The settings on record: other: AMC substrates; λEX = 380 nm, λEm = 460 nm, room temperature; enzyme ca. 0,893 Einheiten/ml. The method, then: as §5, §6, §7

B1: Faktor XIIIa (Homo sapiens) (protein)
chain: GVNLQEFLNVTSVHLFKERWDTNKVDHHTDKYENNKLIVRRGQSFYVQIDFSRPYDPRRDLFRVEYVIGRYPQENKGTYIPVPIVSELQSGKWGAKIVMREDRSVRLSIQSSPKCIVGKFRMYVAVWTPYGVLRTSRNPETDTYILFNPWCEDDAVYLDNEKEREEYVLNDIGVIFYGEVNDIKTRSWSYGQFEDGILDTCLYVMDRAQMDLSGRGNPIKVSRVGSAMVNAKDDEGVLVGSWDNIYAYGVPPSAWTGSVDILLEYRSSENPVRYGQCWVFAGVFNTFLRCLGIPARIVTNYFSAHDNDANLQMDIFLEEDGNVNSKLTKDSVWNYHCWNEAWMTRPDLPVGFGGWQAVDSTPQENSDGMYRCGPASVQAIKHGHVCFQFDAPFVFAEVNSDLIYITAKKDGTHVVENVDATHIGKLIVTKQIGGDGMMDITDTYKFQEGQEEERLALETALMYGAKKPLNTEGVMKSRSNVDMDFEVENAVLGKDFKLSITFRNNSHNRYTITAYLSANITFYTGVPKAEFKKETFDVTLEPLSFKKEAVLIQAGEYMGQLLEQASLHFFVTARINETRDVLAKQKSTVLTIPEIIIKVRGTQVVGSDMTVTVEFTNPLKETLRNVWVHLDGPGVTRPMKKMFREIRPNSTVQWEEVCRPWVSGHRKLIASMSSDSLRHVYGELDVQIQRRPSM
notes: Aktivierung des Zymogens FXIII zu Faktor XIIIa; purchased Aventis Behring Fibrogammin HS
B1: the Michaelis constant (Km) in data set [1] is 40 µM; in data set [2], 86 µM; in data set [3] it was 49 µM; in data set [4], 78 µM; in data set [5], 30 µM; in data set [6] it was 41 µM.
